Consider one substance from publication PMC3446985.

The target in the assay is human GRP78 (human) (UniProt P11021). Kind of assay: AUC; sedimentation velocity, GRP78 alone at 0.4, 0.6 and 1.2 mg/mL, 28,000 rpm, 20°C, 20 mM sodium phosphate pH 7.0, 100 mM NaCl, 55 mM arginine, c(S) analysis; monomer to dimer.

Sequence of human GRP78, P11021 19-654 (natural protein; other documents disagree on this pair) (P11021 19-654): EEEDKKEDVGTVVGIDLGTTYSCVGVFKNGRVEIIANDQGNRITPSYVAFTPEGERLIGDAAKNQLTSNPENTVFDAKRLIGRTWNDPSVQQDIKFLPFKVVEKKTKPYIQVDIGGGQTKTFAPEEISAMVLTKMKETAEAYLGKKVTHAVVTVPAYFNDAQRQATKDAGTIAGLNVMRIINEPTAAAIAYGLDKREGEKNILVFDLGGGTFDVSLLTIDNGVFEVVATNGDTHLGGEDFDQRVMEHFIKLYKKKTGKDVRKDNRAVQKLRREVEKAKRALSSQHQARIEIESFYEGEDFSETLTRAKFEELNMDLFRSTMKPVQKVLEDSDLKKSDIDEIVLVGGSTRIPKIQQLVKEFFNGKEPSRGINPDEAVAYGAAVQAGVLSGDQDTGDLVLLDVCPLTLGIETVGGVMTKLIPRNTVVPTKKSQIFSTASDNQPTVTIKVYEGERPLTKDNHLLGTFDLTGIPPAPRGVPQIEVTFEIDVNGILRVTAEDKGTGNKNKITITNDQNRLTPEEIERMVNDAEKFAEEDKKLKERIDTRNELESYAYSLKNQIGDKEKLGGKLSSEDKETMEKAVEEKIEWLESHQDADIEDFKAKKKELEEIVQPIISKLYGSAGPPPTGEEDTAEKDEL

The substance “human GRP78, P11021 19-654 (natural protein; other documents disagree on this pair)” yielded a stoichiometry N of 2.

Broadly, the stoichiometry N is a count of units in the complex or per binding partner.
